Where two headings read alike, the source gives them in different places.
B1: human S100A2 (natural protein)
chain: not shown
B2: human S100B (natural protein, UniProt P04271 1-92, looked up)
chain: MSELEKAMVALIDVFHQYSGREGDKHKLKKSELKELINNELSHFLEEIKEQEVVDKVMETLDNDGDGECDFQEFMAFVAMVTTACHEFFEHE
B3: human S100P (natural protein, UniProt P25815 1-95, looked up)
chain: MTELETAMGMIIDVFSRYSGSEGSTQTLTKGELKVLMEKELPGFLQSGKDKDAVDKLLKDLDANGDAQVDFSEFIVFVAAITSACHKYFEKAGLK

Tests used:
human S100P [1] = target: B3; assay: other fluorescence titration
human S100B [2] = target: B2; assay: ITC
human S100A2 [3] = target: B1; assay: ITC
human S100A2, sequence (P29034 whole entry): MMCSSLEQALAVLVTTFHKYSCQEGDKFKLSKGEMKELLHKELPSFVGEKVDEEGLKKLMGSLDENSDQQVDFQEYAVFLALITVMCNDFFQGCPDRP

human S100A2 [4] = target: B1; assay: other fluorescence titration
human S100B [5] = target: B2; assay: other fluorescence titration
human S100P [6] = target: B3; assay: ITC
[7] = target: T1, TRTK12 wild-type peptide (Ac-…-NH2) (N-terminus acetylated; C-terminus amidated); assay: stopped-flow fluorescence
[8] = target: T1, TRTK12 wild-type peptide (Ac-…-NH2); assay: ITC
[9] = target: T1, TRTK12 wild-type peptide (Ac-…-NH2); assay: other fluorescence titration
[10] = target: T1, TRTK12 wild-type peptide (Ac-…-NH2); assay: stopped-flow fluorescence; remark: listed apart in the source
[11] = target: T1, TRTK12 wild-type peptide (Ac-…-NH2); assay: ITC; remark: listed apart in the source
[12] = target: T1, TRTK12 wild-type peptide (Ac-…-NH2); assay: stopped-flow fluorescence; remark: listed apart in the source
[13] = target: T1, TRTK12 wild-type peptide (Ac-…-NH2); assay: other fluorescence titration; remark: listed apart in the source
[14] = target: T1, TRTK12 wild-type peptide (Ac-…-NH2); assay: other fluorescence titration; remark: listed apart in the source
[15] = target: T1, TRTK12 wild-type peptide (Ac-…-NH2); assay: stopped-flow fluorescence; remark: listed apart in the source
[16] = target: T1, TRTK12 wild-type peptide (Ac-…-NH2); assay: ITC; remark: listed apart in the source

| Binder | Kd (human S100P [1]) [µM] | Kd (human S100B [2]) [nM] | Kd (human S100A2 [3]) [µM] | Kd (human S100A2 [4]) [µM] | Kd (human S100B [5]) [nM] | Kd (human S100P [6]) [µM] | further results |
| --- | --- | --- | --- | --- | --- | --- | --- |
| Ac-ARTKIDWNKILS-NH2 [TRTKM1 (Ac-ARTKIDWNKILS-NH2)] | 7 ± 3 | 2900 ± 1000 | 15.2 ± 1 | 16 ± 1 | 200 ± 100 | 2 ± 0.5 |  |
| Ac-TRTKADWNKILS-NH2 [TRTKM5 (Ac-TRTKADWNKILS-NH2)] | 100 ± 23 | 1200 ± 400 | 131 ± 6.1 |  | 600 ± 600 | 56.2 ± 4 |  |
| Ac-TRTKIAWNKILS-NH2 [TRTKM6 (Ac-TRTKIAWNKILS-NH2)] |  | 1300 ± 600 | 21.5 ± 4 | 23 ± 3 | 5000 ± 1000 | 7.4 ± 1 |  |
| Ac-TRTKIDWNAILS-NH2 [TRTKM9 (Ac-TRTKIDWNAILS-NH2)] | 30 ± 10 | 1700 ± 100 | 45 ± 2 | 17 ± 4 | 2000 ± 1000 | 7.1 ± 0.5 |  |
| Ac-TRTKIDWNKALS-NH2 [TRTKM10 (Ac-TRTKIDWNKALS-NH2)] |  |  |  |  |  | 43.1 ± 3.9 |  |
| Ac-TRTKIDWNKIAS-NH2 [TRTKM11 (Ac-TRTKIDWNKIAS-NH2)] |  | 3800 ± 1000 | 504 ± 9.7 |  | 10000 ± 3000 | 31.7 ± 0.5 |  |
| B1 |  |  |  |  |  |  | koff [7]: ≥ 250 s⁻¹; Kd [8]: 48 ± 3 µM; Kd [9]: 43 ± 9 µM |
| B2 |  |  |  |  |  |  | koff [10]: 86 s⁻¹; Kd [11]: 1700 ± 100 nM; koff [12]: 53 s⁻¹; kon [12]: 3.1e+07 M⁻¹ s⁻¹; Kd [13]: 3000 ± 1000 nM |
| B3 |  |  |  |  |  |  | Kd [14]: 11 ± 1 µM; koff [15]: 286 s⁻¹; kon [15]: 5.6e+07 M⁻¹ s⁻¹; Kd [16]: 5.1 ± 0.3 µM |
